Test results: US7144576

Target: bovine transducin (UniProt P04695)
Sequence (P04695 2-350): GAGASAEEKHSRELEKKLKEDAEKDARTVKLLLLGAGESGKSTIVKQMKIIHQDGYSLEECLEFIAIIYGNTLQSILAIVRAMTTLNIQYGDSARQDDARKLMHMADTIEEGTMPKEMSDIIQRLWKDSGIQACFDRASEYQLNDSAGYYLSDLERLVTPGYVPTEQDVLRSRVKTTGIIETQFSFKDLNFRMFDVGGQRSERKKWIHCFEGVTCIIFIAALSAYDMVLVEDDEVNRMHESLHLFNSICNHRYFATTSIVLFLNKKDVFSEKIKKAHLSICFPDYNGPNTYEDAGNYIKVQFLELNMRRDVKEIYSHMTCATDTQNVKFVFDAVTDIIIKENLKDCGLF

Substance: recombinant S1 protein of native sequence from pPTXS1/1
- ADP-ribosyltransferase activity (autoradiogram of SDS-PAGE, [32P]NAD): The radioactive band at 39 Kd is the transducin subunit which has been ribosylated
